Where “and” joins values, the source holds several entries; their conditions need not be identical. Equal entries are not always repeated.
B1: Lysozyme C, P61626 (parent)
chain: MKALIVLGLVLLSVTVQGKVFERCELARTLKRLGMDGYRGISLANWMCLAKWESGYNTRATNYNAGDRSTDYGIFQINSRYWCNDGKTPGAVNACHLSCSALLQDNIADAVACAKRVVRDPQGIRAWVAWRNRCQNRDVRQYVQGCGV

Variants of: B1
Conditions: Homo sapiens; pH 2.7; 64.9 °C; Thermal; DSC; glycine 0.05 M; reversible: yes; structure 1LZ1; whole UniProt chain shown

| Variant | ddG of mutation (higher = less stable) [kcal/mol] |
| --- | --- |
| I77A | 1.72 |
| I77V | 1.1 |
| I77Y | 3.78 |
| I77G | 3.82 |
| I74V | 1.2 |
| I74F | 4.09 |
| I74T | 3.63 |

Same assay, conditions: Homo sapiens; pH 2.7; Thermal; DSC; glycine 0.05 M; reversible: yes; structure 1LZ1; whole UniProt chain shown

| Variant | Tm | change of melting temperature, mutant - wild type (higher = more stable) [°C] | heat capacity change of unfolding [kcal/mol/K] | unfolding enthalpy (calorimetric) [kcal/mol] | unfolding enthalpy (van 't Hoff) [kcal/mol] |
| --- | --- | --- | --- | --- | --- |
| I77A | 59.7 °C | -5.2 | 1.46 | 115 | 121 |
| I77V | 61.5 °C and 64.9 °C | -3.4 | 1.2 | 110 | 117 |
| I77Y |  | -13.8 | 1.34 | 97.8 | 105 |
| I77G | 52.2 °C | -12.7 | 1.24 | 106 | 109 |
| I77M | 60.7 °C and 64.9 °C | -4.2 | 1.27 | 106 | 115 |
| I74V | 61.3 °C and 64.9 °C | -3.6 | 1.34 | 114 | 117 |
| I74A | 64.9 °C |  |  |  |  |
| I74F |  | -15 | 1.82 | 102 | 106 |
| I74G | 62.2 °C | -2.7 |  |  |  |
| I74T |  | -12.5 | 1.08 | 102 | 108 |

Same assay, conditions: Homo sapiens; pH 2.71; Thermal; DSC; glycine 0.05 M; reversible: yes; structure 1LZ1; whole UniProt chain shown

| Variant | Tm [°C] | heat capacity change of unfolding [kcal/mol/K] | unfolding enthalpy (calorimetric) [kcal/mol] | unfolding enthalpy (van 't Hoff) [kcal/mol] |
| --- | --- | --- | --- | --- |
| I77Y | 51.4 | 1.55 | 79.3 | 84.4 |

Same assay, conditions: Homo sapiens; pH 3.18; Thermal; DSC; glycine 0.05 M; reversible: yes; structure 1LZ1; whole UniProt chain shown

| Variant | Tm [°C] | heat capacity change of unfolding [kcal/mol/K] | unfolding enthalpy (calorimetric) [kcal/mol] | unfolding enthalpy (van 't Hoff) [kcal/mol] |
| --- | --- | --- | --- | --- |
| I77Y | 59.5 | 1.27 | 90.6 | 97 |

Same assay, conditions: Homo sapiens; pH 2.65; Thermal; DSC; glycine 0.05 M; reversible: yes; structure 1LZ1; whole UniProt chain shown

| Variant | Tm [°C] | heat capacity change of unfolding [kcal/mol/K] | unfolding enthalpy (calorimetric) [kcal/mol] | unfolding enthalpy (van 't Hoff) [kcal/mol] |
| --- | --- | --- | --- | --- |
| I77M | 59.9 | 1 | 98.5 | 108 |

Same assay, conditions: Homo sapiens; pH 2.8; Thermal; DSC; glycine 0.05 M; reversible: yes; structure 1LZ1; whole UniProt chain shown

| Variant | Tm [°C] | heat capacity change of unfolding [kcal/mol/K] | unfolding enthalpy (calorimetric) [kcal/mol] | unfolding enthalpy (van 't Hoff) [kcal/mol] |
| --- | --- | --- | --- | --- |
| I77M | 62 | 1.2 | 103 | 110 |

Same assay, conditions: Homo sapiens; pH 2.95; Thermal; DSC; glycine 0.05 M; reversible: yes; structure 1LZ1; whole UniProt chain shown

| Variant | Tm [°C] | heat capacity change of unfolding [kcal/mol/K] | unfolding enthalpy (calorimetric) [kcal/mol] | unfolding enthalpy (van 't Hoff) [kcal/mol] |
| --- | --- | --- | --- | --- |
| I77M | 64.8 | 1.1 | 106 | 114 |

Same assay, conditions: Homo sapiens; pH 3.13; Thermal; DSC; glycine 0.05 M; reversible: yes; structure 1LZ1; whole UniProt chain shown

| Variant | Tm [°C] | heat capacity change of unfolding [kcal/mol/K] | unfolding enthalpy (calorimetric) [kcal/mol] | unfolding enthalpy (van 't Hoff) [kcal/mol] |
| --- | --- | --- | --- | --- |
| I77M | 66.5 | 1.15 | 107 | 117 |

Same assay, conditions: Homo sapiens; pH 2.75; Thermal; DSC; glycine 0.05 M; reversible: yes; structure 1LZ1; whole UniProt chain shown

| Variant | Tm [°C] | heat capacity change of unfolding [kcal/mol/K] | unfolding enthalpy (calorimetric) [kcal/mol] | unfolding enthalpy (van 't Hoff) [kcal/mol] |
| --- | --- | --- | --- | --- |
| I74F | 50.8 | 1.89 | 76 | 79.3 |

Same assay, conditions: Homo sapiens; pH 3.06; Thermal; DSC; glycine 0.05 M; reversible: yes; structure 1LZ1; whole UniProt chain shown

| Variant | Tm [°C] | heat capacity change of unfolding [kcal/mol/K] | unfolding enthalpy (calorimetric) [kcal/mol] | unfolding enthalpy (van 't Hoff) [kcal/mol] |
| --- | --- | --- | --- | --- |
| I74F | 56.3 | 1.77 | 86 | 89.6 |

— FireProtDB (doi:10.1093/protein/12.10.841)
